{
  "source": "paper PMC3323579",
  "about": "“Direct Ubiquitin Independent Recognition and Degradation of a Folded Protein by the Eukaryotic Proteasomes-Origin of Intrinsic Degradation Signals” (PLoS ONE, 2012)",
  "molecular_target": "yeast 26S proteasome (RPN11-3XFLAG) (yeast, UniProt P43588 1-306)",
  "experiment": "ELISA; competition: 8 nM apoMb on immobilised 26S proteasome with peptides 100 µM to 0.01 µM; 100 nM MG132 in all incubations; Ki from a one site binding fit",
  "conditions": "both partners purified",
  "note": "No end group written: not given here. *: point of attachment. Biotin = O=C1N[C@H]2[C@H](CS[C@H]2CCCCC(=O)*)N1",
  "data": [
    {"binder": "Biotin-EWQLVLHVWAKVEAD", "note": "[A-helix peptide of myoglobin]", "values": [
      {"measurement": "Ki", "value": "800 ± 400", "unit": "nM"}
    ]}
  ]
}
